In the supplement of paper PMC10126150:
± gives the standard deviation of the averaged measurements.

system: ATP; test: switch fluorescence ratio, 500 uM ATP over buffer (Cy3 cluster intensity, sum of 5 cycles each) (fold (ratio)); higher = stronger signal-on switching upon ATP binding; sequences stand for … in TCGTCGGCAGCGTCAGATGTGTATAAGAGACAGTTTTTTTTTTTTTTTTTTTTTTTTT…TC; conditions: aptamer strand: ATP DNA aptamer (quencher-CACCTGGGGGAGTATTGCGGAGGAAGG + anchor), 100 nM annealed; ATP concentration: 500 uM
Method in brief: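 The fluorescence ratio divides summed target-cycle Cy3 intensity by summed buffer-cycle Cy3 intensity for each cluster and is averaged per switch-domain sequence. Cy3-labelled switching-strand clusters on a modified Illumina MiSeq flow-cell were annealed to 100 nM quencher-labelled ATP aptamer, then imaged in selection buffer and again after 15 min with 500 uM ATP at 22 °C. Five such cycles were run, with NaOH stripping and re-annealing between them, and clusters outside 100-1000 RFU were excluded.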
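Further: ATP exposure 15 min at 22 °C before imaging.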

Sequence	switch fluorescence ratio
GGTTTATGGA	1.03 ± 0.024
GGTTTATGGT	0.967 ± 0.019
GGTTTCAGGG	0.986 ± 0.013
GGTTTCCAAT	1 ± 0.02
GGTTTCCGGC	1.008 ± 0.0087
GGTTTCCGT	0.987 ± 0.038
GGTTTCGATG	1 ± 0.023
GGTTTCGCCG	0.985 ± 0.052
GGTTTCGGTT	1.5 ± 0.86
GGTTTCTAGA	0.984 ± 0.024
GGTTTCTGGG	0.963 ± 0.017
GGTTTGAAGC	0.9642 ± 0.008
GGTTTGAGGG	0.985 ± 0.028
GGTTTGATAT	0.972 ± 0.013
GGTTTGCAAG	0.986 ± 0.018
GGTTTGCTGT	0.99034 ± 0.00027
GGTTTGTTGT	0.972 ± 0.022
GGTTTTAACA	1 ± 0.051
GGTTTTACTC	1.0379 ± 0.0006
GGTTTTAGGA	0.987 ± 0.025
GGTTTTGCAC	1.03 ± 0.038
GGTTTTGGCT	0.991 ± 0.01
GGTTTTGGGT	0.978 ± 0.026
GGTTTTGGTT	0.986 ± 0.025
GGTTTTGTCA	1.01 ± 0.019

Sequence	switch fluorescence ratio
GGTTTTTATG	1.004 ± 0.009
GGTTTTTGGC	1.02 ± 0.048
GGTTTTTTAA	0.995 ± 0.011
GGTTTTTTTT	0.992 ± 0.03
GTAAACGGGT	0.963 ± 0.016
GTAACAGGCG	0.905 ± 0.021
GTAACCAAGA	1.02 ± 0.0035
GTAACTAATG	1.02 ± 0.02
GTAACTCGAA	0.98231 ± 0.00092
GTAAGAAAGA	1.02 ± 0.015
GTAAGAGGAA	1.01 ± 0.044
GTAAGGAAAT	1.013 ± 0.0024
GTAAGGGGCG	1.02 ± 0.035
GTAAGTCCGA	0.98 ± 0.0033
GTAATAACGG	1.034 ± 0.0033
GTAATAAGGG	1.04 ± 0.041
GTAATAGGGT	1.01 ± 0.033
GTAATGATTG	0.989 ± 0.014
GTAATGCTCA	1.36 ± 0.062
GTAATGGGGA	1.02 ± 0.015
GTAATTGGGA	1.022 ± 0.0011
GTAATTGTTA	1 ± 0.015
GTAATTTTGC	0.989 ± 0.059
GTACAGGTTT	1.018 ± 0.0074
GTACCCCAGG	3.5 ± 3.3

Sequence	switch fluorescence ratio
GTACCTTGAT	1.05 ± 0.015
GTACTATCTC	0.998 ± 0.046
GTACTCATTT	1 ± 0.038
GTACTCGAGC	1 ± 0.018
GTAGAGGGGG	0.989 ± 0.014
GTAGCAGGGG	1.3 ± 0.068
GTAGCATGCC	1.32 ± 0.088
GTAGCGAGAG	2.11 ± 0.24
GTAGGACGGG	0.995 ± 0.012
GTAGGCCATG	1 ± 0.022
GTAGGCGGTG	0.984 ± 0.029
GTAGGGATGG	1.03 ± 0.013
GTAGGGGAAG	1.01 ± 0.017
GTAGGGGGTC	1.01 ± 0.027
GTAGGTTACT	1.01 ± 0.019
GTAGGTTATG	1.007 ± 0.0081
GTAGTAAGCG	0.953 ± 0.045
GTAGTAGATG	1.013 ± 0.0097
GTAGTAGCGT	0.969 ± 0.022
GTAGTGGCAG	0.992 ± 0.049
GTAGTTGATG	0.9665 ± 0.0026
GTAGTTTATG	0.996 ± 0.014
GTAGTTTGAG	0.996 ± 0.015
GTAGTTTTTT	1.04 ± 0.032
GTATAAAGGC	1.01 ± 0.047

Sequence	switch fluorescence ratio
GTATAACCCG	0.992 ± 0.026
GTATAAGGTT	0.98006 ± 0.00074
GTATAATGGG	0.973 ± 0.019
GTATGAAATC	1.02 ± 0.036
GTATGAAGAG	0.995 ± 0.023
GTATGAGTAG	0.992 ± 0.035
GTATGCGTGC	1.04 ± 0.017
GTATGCGTTG	0.989 ± 0.056
GTATGGAGCG	0.981 ± 0.019
GTATGGCTAG	0.978 ± 0.029
GTATGGGAAA	1.04 ± 0.054
GTATGGGGCA	1 ± 0.029
GTATGGGGCG	1.01 ± 0.081
GTATGGGGGC	0.974 ± 0.063
GTATGGGGGT	0.963 ± 0.024
GTATGGGTGT	0.9711 ± 0.0078
GTATGGTGGG	1.02 ± 0.04
GTATGTAAT	0.997 ± 0.011
GTATGTCGGT	0.997 ± 0.051
GTATTAATTT	0.9833 ± 0.0046
GTATTAGGCG	1.02 ± 0.02
GTATTATTTT	0.979 ± 0.024
GTATTGGTTG	0.983 ± 0.026
GTATTTACAT	0.9862 ± 0.0048
GTCAATGGGA	1 ± 0.029
